Test results from the supplement of paper PMC10126150.
± gives the standard deviation of the averaged measurements.

Test system: ATP
Assay: switch fluorescence ratio, 500 uM ATP over buffer (Cy3 cluster intensity, sum of 5 cycles each) (fold (ratio)); higher = stronger signal-on switching upon ATP binding; sequences stand for … in TCGTCGGCAGCGTCAGATGTGTATAAGAGACAGTTTTTTTTTTTTTTTTTTTTTTTTT…TC
Conditions: aptamer strand: ATP DNA aptamer (quencher-CACCTGGGGGAGTATTGCGGAGGAAGG + anchor), 100 nM annealed; ATP concentration: 500 uM
Summary of the method: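 Cy3-labelled switching-strand clusters on a modified Illumina MiSeq flow-cell were annealed to 100 nM quencher-labelled ATP aptamer and imaged first in selection buffer, then after 15 min with 500 uM ATP at 22 °C. NaOH stripping and re-annealing separated each of five buffer/ATP cycles, and clusters outside 100-1000 RFU were excluded. The fluorescence ratio sums target-cycle Cy3 intensity over buffer-cycle Cy3 intensity per cluster and averages it per switch-domain sequence.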
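Note: ATP exposure 15 min at 22 °C before imaging.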

| Sequence | switch fluorescence ratio |
| --- | --- |
| AGGTTCTCTG | 0.9942 ± 0.0011 |
| AGGTTGAGCT | 0.9791 ± 0.0021 |
| AGGTTGAGG | 1.01 ± 0.021 |
| AGGTTGCGCG | 1.009 ± 0.0079 |
| AGGTTGGATT | 0.9706 ± 0.0039 |
| AGGTTGGCGT | 0.995 ± 0.029 |
| AGGTTGGGAA | 0.944 ± 0.07 |
| AGGTTGGGGG | 0.981 ± 0.013 |
| AGGTTGGTCG | 0.974 ± 0.064 |
| AGGTTGTGAC | 0.989 ± 0.029 |
| AGGTTGTTTG | 1.01 ± 0.031 |
| AGGTTTGGAT | 0.991 ± 0.078 |
| AGGTTTTCTC | 1.02 ± 0.052 |
| AGGTTTTTTA | 1.02 ± 0.022 |
| AGTAAAAAAA | 0.987 ± 0.033 |
| AGTAAAGCAG | 1 ± 0.055 |
| AGTAAAGTTC | 1.03 ± 0.028 |
| AGTAACAGTA | 1 ± 0.037 |
| AGTAACATTT | 0.974 ± 0.069 |
| AGTAACTAGA | 1.01 ± 0.046 |
| AGTAAGAGTC | 1.01 ± 0.017 |
| AGTAAGATGT | 0.976 ± 0.034 |
| AGTAAGCGGC | 1.004 ± 0.0094 |
| AGTAATTTTA | 1.04 ± 0.04 |
| AGTACACGTG | 0.993 ± 0.026 |

| Sequence | switch fluorescence ratio |
| --- | --- |
| AGTACATAGT | 0.99 ± 0.024 |
| AGTACATGAT | 1.02 ± 0.025 |
| AGTACCGGGT | 1.04 ± 0.049 |
| AGTACGGGGG | 0.992 ± 0.021 |
| AGTAGAAATG | 0.991 ± 0.012 |
| AGTAGAATTG | 0.966 ± 0.054 |
| AGTAGAGATG | 1.03 ± 0.028 |
| AGTAGAGTTT | 0.987 ± 0.013 |
| AGTAGCAAGC | 3.3 ± 0.17 |
| AGTAGCAGCT | 1.03 ± 0.048 |
| AGTAGCGATT | 1.06 ± 0.031 |
| AGTAGGCGAG | 0.996 ± 0.042 |
| AGTAGGGGAA | 0.995 ± 0.035 |
| AGTAGGGTTG | 0.957 ± 0.011 |
| AGTAGGTAAA | 1.03 ± 0.023 |
| AGTAGGTAGG | 0.981 ± 0.03 |
| AGTAGGTAGT | 0.968 ± 0.019 |
| AGTAGGTCGG | 0.987 ± 0.01 |
| AGTAGTAAGC | 1.03 ± 0.023 |
| AGTAGTAAGT | 1.01 ± 0.012 |
| AGTAGTTGGG | 0.967 ± 0.037 |
| AGTATAAAAA | 1.03 ± 0.062 |
| AGTATAGGGA | 1.011 ± 0.01 |
| AGTATCTGGG | 0.9886 ± 0.0094 |
| AGTATGGAGC | 0.9983 ± 0.004 |

| Sequence | switch fluorescence ratio |
| --- | --- |
| AGTATGGGGA | 0.989 ± 0.016 |
| AGTATGGGGG | 1.02 ± 0.015 |
| AGTATGGTGG | 0.998 ± 0.013 |
| AGTATGTGCT | 0.965 ± 0.024 |
| AGTATGTGTC | 1.01 ± 0.042 |
| AGTATTCTG | 0.961 ± 0.04 |
| AGTATTGGGT | 0.998 ± 0.035 |
| AGTATTTCGT | 0.987 ± 0.031 |
| AGTATTTTTA | 1.01 ± 0.012 |
| AGTATTTTTG | 1.01 ± 0.032 |
| AGTCCGATTT | 1.03 ± 0.061 |
| AGTCCTTAGC | 1 ± 0.071 |
| AGTCGGGGGC | 1.03 ± 0.04 |
| AGTCGGGGGT | 0.99 ± 0.024 |
| AGTCGGGTCT | 1.05 ± 0.083 |
| AGTCGTTCAG | 0.949 ± 0.023 |
| AGTCTAGTGG | 0.985 ± 0.027 |
| AGTCTCTCAT | 0.992 ± 0.03 |
| AGTCTGCTGT | 0.984 ± 0.037 |
| AGTGACATCG | 1.14 ± 0.076 |
| AGTGAGAGGA | 0.9804 ± 0.007 |
| AGTGAGAT | 0.9943 ± 0.0097 |
| AGTGAGGGTA | 0.983 ± 0.031 |
| AGTGAGGTTG | 0.977 ± 0.049 |
| AGTGATGGGG | 0.987 ± 0.037 |

| Sequence | switch fluorescence ratio |
| --- | --- |
| AGTGCAGGCA | 1 ± 0.034 |
| AGTGCATTTT | 1.06 ± 0.097 |
| AGTGCCATTG | 0.9627 ± 0.0067 |
| AGTGCGGGTT | 1.02 ± 0.025 |
| AGTGGAAAC | 1.0032 ± 0.00099 |
| AGTGGAGGAC | 1.02 ± 0.012 |
| AGTGGCAAGG | 0.9943 ± 0.0063 |
| AGTGGCACGG | 1 ± 0.029 |
| AGTGGCTTTG | 0.986 ± 0.019 |
| AGTGGGAAAT | 0.994 ± 0.015 |
| AGTGGGAACA | 1.01 ± 0.017 |
| AGTGGGAATC | 0.989 ± 0.032 |
| AGTGGGAGGA | 0.996 ± 0.02 |
| AGTGGGATGG | 1.03 ± 0.037 |
| AGTGGGATTT | 0.993 ± 0.039 |
| AGTGGGGAAT | 1.01 ± 0.049 |
| AGTGGGGACG | 1.031 ± 0.01 |
| AGTGGGGATC | 1.03 ± 0.035 |
| AGTGGGGGAT | 0.988 ± 0.028 |
| AGTGGGGGTC | 1.02 ± 0.021 |
| AGTGGGTAGA | 1.04 ± 0.049 |
| AGTGGGTTAG | 1.016 ± 0.0012 |
| AGTGGTACTA | 0.991 ± 0.038 |
| AGTGGTGGAG | 1 ± 0.04 |
| AGTGGTGGTA | 0.998 ± 0.018 |
